Measurements: patent US20070292490A1

What was measured:
[1] = target: lettuce-produced recombinant human tissue factor, full length (263 aa), purified and lipidated (human) (UniProt P13726); experiment: cell-based or functional assay
[2] = target: E. coli produced recombinant human tissue factor rhTF243, purified and lipidated (human) (UniProt P13726); experiment: cell-based or functional assay

clot time in prothrombin time (PT) assay, human plasma, 10 nM lipidated rhTF, at antibody concentration of 500 nM [1]: 42 s
clot time in prothrombin time (PT) assay, human plasma, 10 nM lipidated rhTF, without antibody (0 nM) [1]: 25 s
clot time in prothrombin time (PT) assay, human plasma, 10 nM lipidated rhTF, at antibody concentration of 500 nM [2]: 48 s
clot time in prothrombin time (PT) assay, human plasma, 10 nM lipidated rhTF, without antibody (0 nM) [2]: 25 s
B1: Sunol-cH36 (antibody, from another filing, V domains shown)
VH: EIQLQQSGPELVKPGASVQVSCKTSGYSFTDYNVYWVRQSHGKSLEWIGYIDPYNGITIYDQNFKGKATLTVDKSSTTAFMHLNSLTSDDSAVYFCARDVTTALDFWGQGTTLTVSS
VL: DIQMTQSPASQSASLGESVTITCLASQTIDTWLAWYQQKPGKSPQLLIYAATNLADGVPSRFSGSGSGTKFSFKISSLQAEDFVNYYCQQVYSSPFTFGAGTKLELK
